B1: Anti-sigma-E factor RseA (Escherichia coli (strain K12)), P0AFX7 (parent)
chain: MQKEQLSALMDGETLDSELLNELAHNPEMQKTWESYHLIRDSMRGDTPEVLHFDISSRVMAAIEEEPVRQPATLIPEAQPAPHQWQKMPFWQKVRPWAAQLTQMGVAACVSLAVIVGVQHYNGQSETSQQPETPVFNTLPMMGKASPVSLGVPSEATANNGQQQQVQEQRRRINAMLQDYELQRRLHSEQLQFEQAQTQQAAVQVPGIQTLGTQSQ
partner: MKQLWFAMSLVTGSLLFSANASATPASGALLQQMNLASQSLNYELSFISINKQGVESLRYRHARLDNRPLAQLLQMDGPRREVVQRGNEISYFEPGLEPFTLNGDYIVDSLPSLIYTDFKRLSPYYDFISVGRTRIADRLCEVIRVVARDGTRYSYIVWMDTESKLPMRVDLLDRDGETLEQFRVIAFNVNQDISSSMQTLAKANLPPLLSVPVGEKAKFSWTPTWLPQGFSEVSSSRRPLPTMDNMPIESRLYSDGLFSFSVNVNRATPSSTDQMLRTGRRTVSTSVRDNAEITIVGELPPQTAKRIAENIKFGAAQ
B2: Sigma-E factor regulatory protein RseB (Escherichia coli (strain K12)), P0AFX9 (parent)
chain: B1 partner
partner: B1 chain

Variants of B1 are the subject of one assay. Conditions: with rseb_ecoli rseB.
In the case of E181A, the “effect of a mutation on the interaction” value is reported as “decreasing interaction”.

Consider L186A, for which the “effect of a mutation on the interaction” value was “decreasing interaction”.

Take R185A: the “effect of a mutation on the interaction” value was “decreasing interaction”.

For N174A, the “effect of a mutation on the interaction” value is recorded as “decreasing interaction”.

As to D179A, the “effect of a mutation on the interaction” value was “decreasing interaction”.

On to Y180A, for which the “effect of a mutation on the interaction” value is recorded as “decreasing interaction”.

Q178A: the “effect of a mutation on the interaction” value was “decreasing interaction”.

Turning to S188A, the “effect of a mutation on the interaction” value is “decreasing interaction”.

Take L177A: the “effect of a mutation on the interaction” value was “decreasing interaction”.

Regarding Q183A, the “effect of a mutation on the interaction” value is reported as “decreasing interaction”.

Regarding H187A, the “effect of a mutation on the interaction” value is on record as “decreasing interaction”.

Turning to M176A, the “effect of a mutation on the interaction” value was “decreasing interaction”.

As for L182A, the “effect of a mutation on the interaction” value is “decreasing interaction”.

The variants in the next assay derive from B1. The conditions noted are these: with rseb_ecoli rseB. This is another data set of the same source.
With L186C, the “effect of a mutation on the interaction” value is on record as “increasing interaction strength”.

As to D179C, the “effect of a mutation on the interaction” value is reported as “increasing interaction strength”.

I173C: the “effect of a mutation on the interaction” value is on record as “increasing interaction strength”.

The variants in another assay derive from B1. Conditions: with rseb_ecoli rseB. This is another data set of the same source.
Regarding I173A, the “effect of a mutation on the interaction” value is given as “decreasing interaction”.

As for E189A, the “effect of a mutation on the interaction” value is reported as “decreasing interaction”.

A further assay covers variants of B1. Conditions: with rseb_ecoli rseB. The source holds these as a separate data set.
For the variant H187C, the “effect of a mutation on the interaction” value was “increasing interaction strength”.

The variants in the next assay derive from B2. The conditions noted are these: with rsea_ecoli rseA.
Consider D176A, for which the “effect of a mutation on the interaction” value is recorded as “decreasing interaction”.

With I249A, the “effect of a mutation on the interaction” value was “decreasing interaction”.

In the case of Q182A, the “effect of a mutation on the interaction” value was “decreasing interaction”.

With R238A;R239A, the “effect of a mutation on the interaction” value is “decreasing interaction”.

For the variant D245A;N246A;I249A;E250A, the “effect of a mutation on the interaction” value is on record as “decreasing interaction”.

As for E250A, the “effect of a mutation on the interaction” value was “decreasing interaction”.

As for I249A;E250A, the “effect of a mutation on the interaction” value is listed as “decreasing interaction”.

For D171A, the “effect of a mutation on the interaction” value is reported as “decreasing interaction”.

For the variant E178A, the “effect of a mutation on the interaction” value is listed as “decreasing interaction”.

The variants in another assay derive from B2. Conditions: with rsea_ecoli rseA. The source holds these as a separate data set.
In the case of D174A, the “effect of a mutation on the interaction” value is “decreasing interaction”.

On to E181A, for which the “effect of a mutation on the interaction” value is given as “decreasing interaction”.

For the origin of these results see IntAct's records for PubMed 19103591.
